Experimental data from patent US20090068207A1, “Compositions Containing Beta 2-Glycoprotein I-Derived Peptides for the Prevention and/or Treatment of Vascular Disease” (Vascular Biogenics Ltd., priority 2005, published 2009).

System: ApoE-KO mice
Assay: Aortic sinus lesion area after nasal administration in ApoE-KO mice
Type: in vivo
Experimental: Nasal Tolerance: Nasal tolerance was induced by intranasal administration of oxidized LDL, β2GPI, β2GPI-derived peptides or HSP65, in a total volume of 10 μl PBS. Intranasal administration was performed on mildly sedated mice (12-16 weeks old), each mouse receiving […] of antigen per dose, in the indicated concentrations, every other day. Atherogenesis was induced by 5 weeks of a Western diet initiated on the day following the last intranasal administration, or assessed (in Apo E KO mice) after 8 weeks on a chow diet. Controls received equal amounts of BSA and/or PBS, as indicated, in an identical regimen. Plasma was obtained for assessment of cholesterol and triglyceride levels from all mice, and the mice were sacrificed for evaluation of atherosclerosis, as described hereinbelow, after 5 weeks Western diet, or (in Apo E KO mice) after 8 weeks on a chow diet.
Assessment of Atherosclerosis: Quantification of atherosclerotic fatty streak lesions was done by calculating the lesion size in the aortic sinus as previously described (16) and by calculating the lesion size in the aorta. Briefly, after perfusion with saline Tris EDTA, the heart and the aorta were removed from the animals and the peripheral fat cleaned carefully. […] Lesion areas per section were scored on a grid (17) by an observer counting unidentified, numbered specimens. […]

B1: Human β2 GPI: human beta2-glycoprotein I (SEQ ID NO: 10) purified from serum (protein)
chain: MISPVLILFSSFLCHVAIAGRTCPKPDDLPFSTVVPLKTFYEPGEEITYSCKPGYVSRGGMRKFICPLTGLWPINTLKCTPRVCPFAGILENGAVRYTTFEYPNTISFSCNTGFYLNGADSAKCTEEGKWSPELPVCAPIICPPPSIPTFATLRVYKPSAGNNSLYRDTAVFECLPQHAMFGNDTITCTTHGNWTKLPECREVKCPFPSRPDNGFVNYPAKPTLYYKDKATFGCHDGYSLDGPEEIECTKLGNWSAMPSCKASCKLPVKKATVVYQGERVKIQEKFKNGMLHGDKVSFFCKNKEKKCSYTEDAQCIDGTIEVPKCFKEHSSLAFWKTDASDVKPC
Aortic sinus lesion (μm^2) (End, nasal 10 μg/mouse, mean ± S.E): 117449 ± 7524 μm^2 | reduction of progression of atherosclerotic lesions compared to PBS controls (nasal 10 μg, 3 doses, then 8 weeks of chow diet): 19%
